A short description of the data set: yeast display, Sf9 membrane polyspecificity reagent, FACS + sequencing; frameworks hold sequencing errors. In short, it runs like this:
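Using colony PCR, genes from sorted yeast display clones were amplified, then sequenced on MiSeq at 2 × 250 and filtered by CDR length. The clones had been stained with 10% biotinylated, detergent-solubilized Sf9 membrane reagent for 1 hour at 4 °C and sorted by FACS into low and high (top ~1%) gates on anti-HA and streptavidin fluorescence. Polyreactivity labels come from the gate of origin.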
Consider “QVHLVESGGGLVQAGGSLRLSCAASGLTFIPNAMGWYRQAPGKERELVAAISGTGGSTYYADSVKGRFTISRDNAKNTVYLQMNRLKPEDTAVYYCAARRRYKSGYWGQGTQVTVSS”, for which the “polyreactivity (PSR sort gate)” value is reported as “high polyreactivity”. For “QVHLVESGGGLVQAGGSLRLSCAASGRIFYKNAMGWYRQAPGKERELVASITVGGGRTSYADSVKGRFTISRDNAKNTVYLQMNSLKPEDTAVFYCAATTGKTTFRATWYDYWGQCTQVTVSS”, the “polyreactivity (PSR sort gate)” value is given as “low polyreactivity”. As to “QVQLVESGGGLVQAGGSLRLSCAASGRIFRYNAMGWYRQAPGKEREFVAAITQSGGSTYYADSVKGRFTISRDNAKNTVYLQMNRLKPEDTAVYYSAADRFYWTYLNYQFLTDYWGQGTQVNVSS”, the “polyreactivity (PSR sort gate)” value was “high polyreactivity”. With “QVQLEESGGGLVQAGGSLRLSCAASGSTFTLNAMGWYRQAPGKERELVADISWSSGRTYYADSVKGRFTISRDNAKNTVYLQMNSLKPEDTAVYYCATDDFWNVKFYAYYPEFDYWGQGTQVTVSS” the entry was “low polyreactivity”; with “QVQLVESGGGLVQAGGSLRLSCAASGRIFVSYAMGWYRQAPGKERELVAAITYSVDSTYYADSVKGRFTISRDNAKNTVYLQMNSLKPEDTAVSYCATDVDWAYGYQYEYWGQGTQVTVSS”, “low polyreactivity”. “QVQLVESGGGLVQAGGSLRLSCAASGGTFLPNAMGWYRQAPWKERELVAAITSGGRTNYADSVKGRFTISRDNAKNTVYFQMNSLKPEDTAVYYCAARVRGYPTRPIPYYYWGQGTQVTVSS”: the “polyreactivity (PSR sort gate)” value was “high polyreactivity”. For the sequence “QVQLGESGGGLVQAGGSLRLSCAASGRTFGPYAMGWYRQAPGKERELVAAIRYIDDSTFYADSVKGRFTISRDTAKNTVYLQMNSLKPEDTAVYYCAARPYPHSAYEGDYWGRGTQVTVSS”, the “polyreactivity (PSR sort gate)” value is listed as “low polyreactivity”. As for “QVQLVESGGGLVQAGGSLRLSCAASGSIFDFNAMGWYRQAPGKERELVATIRYSGGSTYYADSVKGRFTISRDNAKNTVYLQMNSLKPEDTAVYYCIFRSPSYEYDYWGQGTQVTVSS”, the “polyreactivity (PSR sort gate)” value was “low polyreactivity”. On to “QVQLVESGGGLVQAGGSLRLSCAASGITFRWNAMGWYRPAPGKARELVAAITYRGGSTHYADSVKGRFTISRDNGKNSVYIQMNSLKPEDTAVYYCAVRRWPRYRWSDYWVQGTQVTVSS”, for which the “polyreactivity (PSR sort gate)” value is “low polyreactivity”.

As for “QVQLVESGGGLVQAGGSLRLSCAASGSTFGYNAMGWYRQAPGKEREFVATIRYSGDRTYYADSVKGRFTISRDNAKNTVYLQMNSLKPEDTAVYYCAADLYYNSYGRYGRYYYWGQGTQVNVSS”, the “polyreactivity (PSR sort gate)” value is on record as “high polyreactivity”.

On to “QVQLVESGGGLVQAGGRLRLSCAASGSIFTPNAMGWYRQAPGKEMELVAAISSSSDRTYYADSVKGRFTISRDNAMITVYLQMNSLNPEDTAVYYCAAETNTWYLFDFWGQGTQVTVSS”, for which the “polyreactivity (PSR sort gate)” value is on record as “high polyreactivity”.

As for “QVQLVESGGGLDQAGGSLRLSCAASGFTSYENAMGSYRQAPGKERELVAAITWDGGSTYYADSVKGRFTISRDNAKNTVYFQMNSLKPEDTAVYYCAARQVVYYAYTFDYWGQGTQVTVSS”, the “polyreactivity (PSR sort gate)” value is “low polyreactivity”.

For the sequence “QVQLVESGGGLVQAGGSLRLSCAASGSIFNPYTMGWYRQAPGKEREMVAAISASGGSTYYADSVKGRFTISRDNAKNTVYLQMNSLKPEDTAVYYCNVYRITRHSYNFGFDYWGQGTQVTVSS”, the “polyreactivity (PSR sort gate)” value was “low polyreactivity”. In the case of “QVQLVESGGGLVQAGGSLRLSCAASGRTFIGYAMGWYRQAPGKERELVATISVSGGSTYYADSVKGRFTISRDNAKNTVYLQMNSLKPEDTAVYYCAKAYLRFYDGPYDYWGQGTQVTVSS”, the “polyreactivity (PSR sort gate)” value was “low polyreactivity”. As for “QVQLVESGGGLVQAGGSLRLSCAASGFTFSAYDMGWYRQAPGKERELVAAISWSGGRTYYADSVKGRFTISRDNAKNTVYLQMNSLKPEDTAVYYCNAASLRYSYTLFDSWGQGTQVTVSS”, the “polyreactivity (PSR sort gate)” value is “high polyreactivity”. Take “QVQLVESGGVLVQAGGSLRLSCAASGFTFSLYGMGWYRQAPGKEREFVAAIRSGGSTNYADSVKGRFTISRDNAKNTVYLQMNRLKPEDTAVYYCATDIHSVHNNRDKHDYDYWGQGTQVTVSS”: the “polyreactivity (PSR sort gate)” value is listed as “low polyreactivity”.

Regarding “QVQLVESGGGLVQAGGSLRLSCADSGFIFSAHAMGGYSQAPGKDRELVAAISRTGGSTYYADSVKGRFTISRDNAKNTVYLQMNSLKPEETAGYYGAAYIRYGGLAYDSNYWGQGTQVTVSS”, the “polyreactivity (PSR sort gate)” value is on record as “high polyreactivity”. For the sequence “QVQRVESGGGLVQAGGSLRLSCAASGTIFYHNAMGWYRQAPGIERELVAAITGSGGSTYYADSVKGRFTISRDNAKNTVYLQMNSLKPEDTAVYYCAADGYTKWRISWGYDYWGQGTQVTVCS”, the “polyreactivity (PSR sort gate)” value is “low polyreactivity”. Consider “QVQLVESGGGLVQAGGSLRLSCAASGSIFYYYAMGWYRQAPGKERELVAAISRSGGSTYYADSVKGRFTISRDNAKNTVYLQMNSLKPEDTAVYYCNVAYGLQPYDYWGQGTQVTVSS”, for which the “polyreactivity (PSR sort gate)” value is “high polyreactivity”. “QVQLVESGGGLVQAGGSLCLSCAASGITFLFYAMGWYRQAPGKERELVAAITYSGGSTYYADSVKGRFTISRDNAKNTVYLQMNSLKPEDTAVYYCAADVWWSYYRYDYWGQGTQVTVSS”: the “polyreactivity (PSR sort gate)” value was “low polyreactivity”. With “QVQLVESGGGLVQAGGSLRLSCAASGITFWKYAMGWYRQAPGKERELVAAISGRGGSTYYADSVKGRFTISRDNAKNTVYLQMNSLKPEDTAVFYCAKFPGISGYNYWGQGTQVTVSS”, the “polyreactivity (PSR sort gate)” value is recorded as “high polyreactivity”. For the sequence “QVQLVESGGGLVQAGGSLRLSCAASGYIFTIYAMGWYRQAPGKERELVAAITWSGATTYYADSVKGRFTISRDNAKNTVYLQMNSLKPEDTAVYYCNADYWHYYEDYDSWGQGTQVTVSS”, the “polyreactivity (PSR sort gate)” value is reported as “low polyreactivity”. With “QVQLVESGGGLVQAGGSLRLSCAASGLIFRYYTMGWYRQAPGKERELVATITKSGSSTYYADSVKGRFTISRDNAKNTVYLQMNSLKPEDTAVYYCAARAYPSYPRGVYAYYYWGQGTQVTVSS”, the “polyreactivity (PSR sort gate)” value is “high polyreactivity”. On to “QVQLVESGGGLVQAGGSLRLSCAASGRIFGSYAMGWYRQAPGKERELVATITFGGGSTYYAESEKGRFTISRDNAKNTVYLQMNSLKPEDTAVYYCAADSGYLGIYGDEYSWGQGTQVTVSS”, for which the “polyreactivity (PSR sort gate)” value is reported as “low polyreactivity”. With “QVQLVESGGGLDQAGGSLRLSCAASGRIFNVYAMGWYRQAPGKERELVASITSAGSTYYADSVKGRFTISRDNAKNTVYIKMNSLKPEDTAVYYCAADCYSVYYSTYDSWGQGTQVTVSS”, the “polyreactivity (PSR sort gate)” value was “low polyreactivity”. For “QVQLVESGVGLVQAGGSLRLSCAASGFTFAFYAMGWYRQAPGKERELVAAISRRGGSTTYADSVKGRFTISRDNAKYTVYLQMNSLKPEDTAVYYCNAVSTRNPGPDYYYWGQGTQVTVSS”, the “polyreactivity (PSR sort gate)” value is “high polyreactivity”. In the case of “QVQLVESGGGLVQAGGSLRLSCAASGRIFGYNAMGWYRQAPGKERELVAAISGSGGSTYYADSVKGRFTISRDNAKNTVYLQMNSLKPEDTAVYYCATRHGRYPYTLDYWGQGTQVTVSS”, the “polyreactivity (PSR sort gate)” value is recorded as “low polyreactivity”. With “QVQLVESGGGLVQAGGSLRLSCAASGRIFARYAMGWYRQAPGKERELVAAITGGGRTNYADSVKGRFTISRDNAKNTVYLQMNSLKPEDTAVYYCAADTGYQNGKGLGYQNFGGYYWGQGTQVTVSS”, the “polyreactivity (PSR sort gate)” value is “high polyreactivity”.

In the case of “QVQLVESGGGLVQAGGSLRLICAASGFIYFFYAMGWSRQAPGKEMEFVAVITQSGGSTYYADSVKGRFTISRDNAKNTVYLQMNSLKPEDTAVYYFNADTVRYYPFFSVRYYYWGQGTQVTVSS”, the “polyreactivity (PSR sort gate)” value is given as “low polyreactivity”. With “QVQLVESGGGLVQAGGSLRLSCAASGRISAYNAMGWYRQAPGKERELVAGISTRTGSTYYADSVKGRFTISRDNAKNTVYLQMNSLKPEDTAVYYGAAYFWGVYFFGMDYWGQGTQVTVSS”, the “polyreactivity (PSR sort gate)” value is “low polyreactivity”.
